Results on 7 molecules are retold here after patent US20060165677A1, “DELETION FORMS OF IgE-DEPENDENT HISTAMINE RELEASING FACTOR HAVING HISTAMINE RELEASING ACTIVITY, HRF-BINDING PEPTIDES AND THE USES THEREOF” (EWHA UNIVERSITY-INDUSTRY COLLABORATION FOUNDATION, priority 2005, published 2006).

Assay [1] has as its system phage φ-HBP-2 expressing HRF-binding peptide. Nature of the assay: Phage display peptide clone-binding capacity of immobilized HRF forms (ELISA). The conditions noted are these: HRF form immobilized on plate, ELISA at 405 nm. How it is done:
Each deletion form of HRF was immobilized on a plastic well, to which phage expressing HRF-binding peptide was added in order to investigate binding capacity of each HRF.
Particularly, each deletion form of HRF dissolved in coating buffer (0.1 M NaHCO3, pH 8.6) at the concentration of 20 μg/Ml was placed on polystyrene microtiter plate by 50 μl, followed by coating at 4° C. for overnight and non-specific binding was blocked with BSA. The plate was washed with 0.1% tween/TBS (TBST) 6 times, to which 30 μl of phage solution diluted in 30 μl of 6% BSA/PBS was added. The solution stood at room temperature for 2 hours. After washing with PBST five times, 100 μl of […] anti-M13 antibody (Pharmacia), diluted in 3% BSA/PBS at the ratio of 1:5000, was added to the solution, followed by standing at room temperature for one hour. After washing 6 times with PBST and once more with PBS, 100 μl of peroxidase substrate solution was added and color development was measured at 405 nm by using ELISA reader (Bio-Rad).
A general note: An ELISA detects its analyte on a solid surface through an enzyme-linked reagent.

The target of assay [2] is T1, Del-N35HRF (Rattus norvegicus, UniProt P63029).
T1 construct: 6xHis (pRSET-A leader) (N); made in house; host or cells: E. coli BL21(DE3) or BL21(DE3)pLysS
T1 sequence (P63029 35-172): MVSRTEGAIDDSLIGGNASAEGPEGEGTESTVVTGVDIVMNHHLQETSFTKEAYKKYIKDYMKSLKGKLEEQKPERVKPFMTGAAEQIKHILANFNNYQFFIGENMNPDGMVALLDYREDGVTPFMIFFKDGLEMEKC
Nature of the assay: Inhibition by HRF-binding peptides of Del-N35HRF-induced IL-8 secretion in BEAS-2B cells. The assay is classed as cell-based. The conditions noted are these: Del-N35HRF 61 nM, peptide 6.1-610 nM, 24 hours. How it is done:
The interactions between HRF-binding peptides and deletion forms of HRF were investigated in BEAS-2B cells. Del-N35HRF (61 nM) was treated to BEAS-2B cells by the same manner as described in Example 3. At that time, HRF-binding peptide and its mutant in which alanine was replaced (Korean Registered Patent No. 457350B1), and HRF-binding peptides in which amino acid 1 or 7 was deleted were added to Del-N35HRF with different concentrations (6.1-610 nM), followed by standing at room temperature for 10 minutes, which would be added to the cell lines. 24 hours later, supernatant was obtained and the released IL-8 was quantified by PIERCE.

In assay [3] the test system is deletion forms of HRF. Kind of assay: Inhibition by HRF-binding peptide of HRF-induced histamine secretion in RBL-2H3 cells. The conditions noted are these: RBL-2H3 cells sensitized with rat IgE. It is filed as cell-based. How it is done:
RBL-2H3 cells (ATCC) were cultured in 24-well plate at the concentration of 5×10^4 cells/well, followed by sensitization with rat IgE antibody (0.2 μg/Ml, Serotec) for 60 minutes. The cells were treated with […] of recombinant HRF protein in 5% FBS/MEM medium (positive control). The cells were treated with heptamer peptide (Korean Registered Patent No. 457350B1) with different concentrations (0.0156-15.6 mM). 15 minutes later, rat anti-IgE antibody was added thereto. 4 hours later, supernatant was obtained and the isolated histamine was measured by using histamine analyzer (Astoria Analyzer, Series 300 system).

Assay [4] concerns IgE sensitized human basophils. Kind of assay: Histamine releasing activity in human basophils according to HRF forms. The conditions noted are these: compared with wild type HRF. The assay is classed as cell-based. How it is done: The activities of different deletion forms of HRF were compared by investigating histamine secretions in human basophils. 40 Ml of venous blood was taken from a donor with atopic dermatitis. To the blood sample was added 10 mM of EDTA, an anticoagulant, and 10 Ml of dextran containing 6% saline. The solution stood at room temperature for 90 minutes and then supernatant containing leukocytes was separated, followed by centrifugation at 150×g for 8 minutes. The recovered leukocytes were washed twice with PAG-EDTA (4 mM EDTA, 25 mM PIPES, 110 mM NaCl, 5 mM KCl, 0.003% HSA, 0.1% D-glucose), which were left in cold lactate buffer (13.4 mM lactic acid, 140 mM NaCl, 5 mM KCl, pH 3.9) for 3-5 minutes to eliminate IgE adhered on the surface of cells. The cells were washed with 30 Ml of PAG-EDTA twice and resuspended in PAG-EDTA, followed by IgE-sensitization (1 μg/Ml, Serotec) for 2 hours. Then, the cells were washed with IMDM medium (Gibco BRL) supplemented with 5% FBS twice, to which each recombinant protein (rHRF or each deletion form of HRF) prepared in Example <1-3> was added by 20 μg/Ml. 15 minutes later, human anti-IgE antibody was added thereto. Four hours later, supernatant was obtained. The isolated histamine was measured by histamine analyzer (Astoria Analyzer, Series 300 system) (FIG. 6).

Assay [5] has as its system BEAS-2B cells. Nature of the assay: IL-8 releasing activity in BEAS-2B cells according to HRF forms. The assay is classed as cell-based. The conditions noted are these: for IL-8 releasing activity at low level of HRF: HRF 1 μg/Ml, lower than minimum level for IL-8 secretion by wild type HRF; for IL-8 releasing activity: compared with wild type HRF. The procedure:
The activities of different deletion forms of HRF were compared by investigating IL-8 secretions in BEAS-2B cells (ATCC). BEAS-2B cells were cultured in 48-well plate until they were 70% grown up. Then, the cells were washed with 1% penicillin-streptomycin/BEBM (Clonetics) twice, to which each recombinant protein (RrHRF or each deletion form of HRF) separated in Example <1-3> was added by 1 μg/Ml or 10 μg/Ml. 48 or 24 hours later, supernatant was obtained and IL-8 therein was measured by PIERCE (FIG. 5).

Entries after “also recorded” stand apart in the source; their conditions may differ.

As for “Del-N84C108HRF: deletion form of rat HRF, amino acid 84-108 fragment (TKEAYKKYIKDYMKSLKGKLEEQKP; listed as Rattus norvegicus)”, the “affinity to phage expressing HRF-binding heptamer peptide (HBP2)” value (“affinity” below) in assay [1] is reported as “high”; in assay [1] (listed as SEQ ID NO:8) it was “excellent”.

Turning to “HBP-2: HRF-binding heptamer peptide having the sequence WYVYPSM (Korean Registered Patent No. 457350B1)”, the entries for the “inhibition of IL-8 secretion by deletion forms of HRF” value in assay [2] and in assay [2] (listed as HRF-binding peptide) were “inhibits” and “dose-dependently”, respectively. Further, the “inhibition of histamine releasing by deletion forms of HRF” value in assay [3] was “inhibits”; in assay [3] (listed as HRF-binding peptide) it was “dose-dependently”.

B1: Del-N35HRF: deletion form of rat HRF, amino acid 35-172 fragment; 34 N-terminal residues deleted (protein, listed as Rattus norvegicus)
chain: T1 sequence (P63029 35-172)
B1: the histamine releasing activity entry in assay [4] is recorded as “more effectively than wild type HRF; also recorded: increased”; in assay [4] (listed as SEQ ID NO:3) it was “excellent; also recorded: similarly induced histamine releasing”. The “IL-8 releasing activity at low level of HRF” value in assay [5] is given as “detected”. The results for the IL-8 releasing activity entry in assay [5] and in assay [5] (listed as SEQ ID NO:3) were “greater” and “excellent; also recorded: increased”, respectively. For the same molecule, in assay [1], the “affinity” value is “very strong”.

B2: Del-N39C110HRF: deletion form of rat HRF, amino acid 39-110 fragment (protein, listed as Rattus norvegicus)
chain: TEGAIDDSLIGGNASAEGPEGEGTESTVVTGVDIVMNHHLQETSFTKEAYKKYIKDYMKSLKGKLEEQKPER
For the molecule B2, in assay [1] (listed as SEQ ID NO:5), the “affinity” value is listed as “excellent”.

B3: Del-N11HRF: deletion form of rat HRF, amino acid 11-172 fragment; 10 N-terminal residues deleted (protein, listed as Rattus norvegicus)
chain: DELFSDIYKIREIADGLCLEVEGKMVSRTEGAIDDSLIGGNASAEGPEGEGTESTVVTGVDIVMNHHLQETSFTKEAYKKYIKDYMKSLKGKLEEQKPERVKPFMTGAAEQIKHILANFNNYQFFIGENMNPDGMVALLDYREDGVTPFMIFFKDGLEMEKC
Regarding B3, the histamine releasing activity result in assay [4] was “more effectively than wild type HRF; also recorded: increased”; in assay [4] (listed as SEQ ID NO:2), “similarly induced histamine releasing”. Moreover, the “IL-8 releasing activity at low level of HRF” value in assay [5] is “detected”. The IL-8 releasing activity entry was “greater” in assay [5] and “increased” in assay [5] (listed as SEQ ID NO:2). Also, the “affinity” value in assay [1] is “very strong”.

B4: RrHRF: recombinant total-length rat HRF, amino acids 1-172 (Accession number U20525) (protein, listed as Rattus norvegicus)
chain: MIIYRDLISHDELFSDIYKIREIADGLCLEVEGKMVSRTEGAIDDSLIGGNASAEGPEGEGTESTVVTGVDIVMNHHLQETSFTKEAYKKYIKDYMKSLKGKLEEQKPERVKPFMTGAAEQIKHILANFNNYQFFIGENMNPDGMVALLDYREDGVTPFMIFFKDGLEMEKC
As to B4, the “affinity” value is “very weak” in assay [1] and “weak” in assay [1] (listed as wild type HRF).

B5: Del-C112HRF: deletion form of rat HRF, amino acid 1-112 fragment (protein, listed as Rattus norvegicus)
chain: MIIYRDLISHDELFSDIYKIREIADGLCLEVEGKMVSRTEGAIDDSLIGGNASAEGPEGEGTESTVVTGVDIVMNHHLQETSFTKEAYKKYIKDYMKSLKGKLEEQKPERVK
On to B5, for which the histamine releasing activity entry in assay [4] is recorded as “as much as that of wild type HRF”. The “affinity” value in assay [1] was “very weak and weak”.
